Laboratory results published in patent US20150353647A1 (UNIVERSITY OF TENNESSEE RESEARCH FOUNDATION, published 2015).

Biological target: human tissue plasminogen activator (TPA) (human, UniProt P00750 36-562)
Assay: cell-based or functional assay

Sequence of human tissue plasminogen activator (TPA) (P00750 36-562 limits assumed): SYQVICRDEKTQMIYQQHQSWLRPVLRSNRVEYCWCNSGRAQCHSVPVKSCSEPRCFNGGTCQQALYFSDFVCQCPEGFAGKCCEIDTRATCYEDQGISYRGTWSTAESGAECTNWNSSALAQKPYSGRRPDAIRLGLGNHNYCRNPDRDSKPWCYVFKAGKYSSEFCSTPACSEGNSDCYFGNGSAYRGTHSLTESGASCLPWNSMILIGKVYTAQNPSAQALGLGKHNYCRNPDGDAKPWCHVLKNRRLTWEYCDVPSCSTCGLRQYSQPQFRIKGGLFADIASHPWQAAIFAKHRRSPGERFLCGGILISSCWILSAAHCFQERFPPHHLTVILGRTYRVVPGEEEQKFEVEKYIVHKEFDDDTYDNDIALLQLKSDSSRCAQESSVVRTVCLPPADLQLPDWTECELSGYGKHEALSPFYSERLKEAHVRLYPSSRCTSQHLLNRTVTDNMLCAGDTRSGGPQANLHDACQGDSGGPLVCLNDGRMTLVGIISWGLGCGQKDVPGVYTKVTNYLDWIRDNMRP

B1: stable mutant human PAI-1 (four amino acid substitutions, N150H, K154T, Q319L, and M354I) (other, UniProt P05121 24-402, looked up)
chain: VHHPPSYVAHLASDFGVRVFQQVAQASKDRNVVFSPYGVASVLAMLQLTTGGETQQQIQAAMGFKIDDKGMAPALRHLYKELMGPWNKDEISTTDAIFVQRDLKLVQGFMPHFFRLFRSTVKQVDFSEVERARFIINDWVKTHTKGMISHLLGTGAVDQLTRLVLVNALYFNGQWKTPFPDSSTHRRLFHKSDGSTVSVPMMAQTNKFNYTEFTTPDGHYYDILELPYHGDTLSMFIAAPYEKEVPLSALTNILSAQLISHWKGNMTRLPRLLVLPKFSLETEVDLRKPLENLGMTDMFRQFQADFTSLSDQEPLHVALALQKVKIEVNESGTVASSSTAVIVSARMAPEEIIIDRPFLFVVRHNPTGTVLFMGQVMEP
  IC50, inhibition of TPA-induced fibrinolysis of human plasma clots (0.5 nM TPA, 2 hrs): 4.53 nM
